Experimental data: article PMC9050887 (2023)

Target: T1, GSDMD (Mus musculus, UniProt Q9D8T2)
T1 chain: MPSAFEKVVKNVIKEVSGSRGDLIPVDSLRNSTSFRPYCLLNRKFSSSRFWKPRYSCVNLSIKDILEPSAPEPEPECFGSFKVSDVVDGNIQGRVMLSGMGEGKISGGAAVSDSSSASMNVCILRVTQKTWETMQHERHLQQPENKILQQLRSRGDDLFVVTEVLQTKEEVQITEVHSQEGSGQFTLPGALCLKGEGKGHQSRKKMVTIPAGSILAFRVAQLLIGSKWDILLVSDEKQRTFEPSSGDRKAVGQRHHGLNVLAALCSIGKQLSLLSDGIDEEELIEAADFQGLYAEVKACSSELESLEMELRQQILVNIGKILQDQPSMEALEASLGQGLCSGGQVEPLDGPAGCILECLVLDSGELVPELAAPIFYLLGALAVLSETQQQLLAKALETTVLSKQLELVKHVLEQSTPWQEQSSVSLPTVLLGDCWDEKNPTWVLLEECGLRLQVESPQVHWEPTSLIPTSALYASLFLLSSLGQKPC
Assay: SPR

B1: CIRP (protein)
chain: MASDEGKLFVGGLSFDTNEQALEQVFSKYGQISEVVVVKDRETQRSRGFGFVTFENIDDAKDAMMAMNGKSVDGRQIRVDQAGKSSDNRSRGYRGGSAGGRGFFRGGRSRGRGFSRGGGDRGYGGGRFESRSGGYGGSRDYYASRSQGGSYGYRSSGGSYRDSYDSYATHNE
Question: With B1 as the binder, how does the Kd read?
Answer: 487 nM
